The target of assay [1] is chymotrypsin digested rPA (47 and 37 kDa fragments) (Bacillus anthracis, UniProt P13423 30-343; P13423 344-764). Put plainly: Western immunoblot of chymotrypsin digested rPA. (In general: A western blot detects proteins with antibodies after separation by electrophoresis.)
In assay [2] the target is recombinant anthrax protective antigen (rPA) (Bacillus anthracis, UniProt P13423 30-764). Put plainly: SPR, Biacore 2000, rPA on a CM5 chip, MAb in solution. Background: In SPR one partner is held on a chip, and binding of the other changes the refractive index at the surface.
Assay [3] has as its target T1, recombinant lethal factor (rLF) (Bacillus anthracis, UniProt P15917 34-809).
T1 sequence: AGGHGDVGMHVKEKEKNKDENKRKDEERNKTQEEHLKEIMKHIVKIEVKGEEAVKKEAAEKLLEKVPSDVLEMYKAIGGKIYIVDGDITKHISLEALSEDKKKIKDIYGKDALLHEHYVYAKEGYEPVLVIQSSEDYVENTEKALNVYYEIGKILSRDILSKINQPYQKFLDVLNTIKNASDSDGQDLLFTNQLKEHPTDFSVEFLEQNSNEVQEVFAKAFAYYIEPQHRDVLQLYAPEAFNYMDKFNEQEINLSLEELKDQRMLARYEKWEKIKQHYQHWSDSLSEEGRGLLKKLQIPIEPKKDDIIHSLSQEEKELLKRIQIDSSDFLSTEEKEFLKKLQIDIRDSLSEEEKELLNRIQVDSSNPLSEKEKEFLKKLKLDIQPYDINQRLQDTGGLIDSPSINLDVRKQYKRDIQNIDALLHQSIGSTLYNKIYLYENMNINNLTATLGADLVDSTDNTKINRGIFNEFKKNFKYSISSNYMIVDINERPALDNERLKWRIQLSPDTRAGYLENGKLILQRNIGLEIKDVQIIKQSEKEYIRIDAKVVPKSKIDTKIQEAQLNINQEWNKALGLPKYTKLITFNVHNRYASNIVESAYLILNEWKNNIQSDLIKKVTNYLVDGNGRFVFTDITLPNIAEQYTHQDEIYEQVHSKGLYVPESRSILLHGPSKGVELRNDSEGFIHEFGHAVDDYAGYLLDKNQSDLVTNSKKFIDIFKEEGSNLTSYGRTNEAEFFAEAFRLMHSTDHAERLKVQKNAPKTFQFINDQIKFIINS
Put plainly: Western immunoblot, 2 µg denatured protein.

The target of assay [4] is bovine serum albumin (BSA) (bovine, UniProt P02769 25-607). Put plainly: endpoint ELISA, antigen coated at 100 ng/well. In general terms: ELISA stands for enzyme-linked immunosorbent assay.
Sequence of bovine serum albumin (BSA) (P02769 25-607 limits assumed): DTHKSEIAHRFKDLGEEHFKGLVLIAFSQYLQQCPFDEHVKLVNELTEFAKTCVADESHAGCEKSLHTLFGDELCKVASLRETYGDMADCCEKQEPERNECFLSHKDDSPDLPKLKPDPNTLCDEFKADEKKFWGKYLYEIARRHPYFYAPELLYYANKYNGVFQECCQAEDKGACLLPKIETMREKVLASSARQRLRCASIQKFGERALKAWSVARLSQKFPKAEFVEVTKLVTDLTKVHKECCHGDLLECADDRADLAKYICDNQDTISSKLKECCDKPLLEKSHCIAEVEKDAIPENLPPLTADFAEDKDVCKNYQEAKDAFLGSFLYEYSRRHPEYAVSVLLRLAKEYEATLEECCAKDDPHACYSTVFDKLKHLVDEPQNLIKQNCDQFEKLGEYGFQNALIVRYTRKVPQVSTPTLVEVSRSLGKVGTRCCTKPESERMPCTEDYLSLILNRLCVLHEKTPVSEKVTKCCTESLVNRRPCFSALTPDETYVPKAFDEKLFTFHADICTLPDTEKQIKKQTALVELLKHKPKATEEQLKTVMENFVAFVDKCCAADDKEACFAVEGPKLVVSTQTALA

Sequence of recombinant anthrax protective antigen (rPA) (P13423 30-764): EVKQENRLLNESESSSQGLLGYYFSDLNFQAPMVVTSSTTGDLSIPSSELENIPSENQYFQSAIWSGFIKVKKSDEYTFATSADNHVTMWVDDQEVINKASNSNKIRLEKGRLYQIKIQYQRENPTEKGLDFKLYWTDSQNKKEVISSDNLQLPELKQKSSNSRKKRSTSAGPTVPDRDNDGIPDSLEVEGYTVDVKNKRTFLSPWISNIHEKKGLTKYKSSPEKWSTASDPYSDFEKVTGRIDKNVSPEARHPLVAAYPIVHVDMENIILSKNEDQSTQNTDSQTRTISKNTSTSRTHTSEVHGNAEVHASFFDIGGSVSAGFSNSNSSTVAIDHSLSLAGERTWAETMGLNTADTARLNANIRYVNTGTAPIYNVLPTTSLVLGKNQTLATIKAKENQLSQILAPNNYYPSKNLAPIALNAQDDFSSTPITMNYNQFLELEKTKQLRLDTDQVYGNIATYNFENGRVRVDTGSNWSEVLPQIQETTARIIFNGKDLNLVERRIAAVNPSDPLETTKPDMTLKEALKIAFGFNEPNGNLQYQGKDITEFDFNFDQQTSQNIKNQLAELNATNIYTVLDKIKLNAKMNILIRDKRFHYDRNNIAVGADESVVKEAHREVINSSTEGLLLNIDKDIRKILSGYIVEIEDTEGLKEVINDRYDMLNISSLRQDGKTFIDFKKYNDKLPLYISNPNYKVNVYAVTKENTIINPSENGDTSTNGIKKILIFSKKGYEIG
Sequence of chymotrypsin digested rPA (47 and 37 kDa fragments) (P13423 30-343 limits assumed, chain 1 of 2): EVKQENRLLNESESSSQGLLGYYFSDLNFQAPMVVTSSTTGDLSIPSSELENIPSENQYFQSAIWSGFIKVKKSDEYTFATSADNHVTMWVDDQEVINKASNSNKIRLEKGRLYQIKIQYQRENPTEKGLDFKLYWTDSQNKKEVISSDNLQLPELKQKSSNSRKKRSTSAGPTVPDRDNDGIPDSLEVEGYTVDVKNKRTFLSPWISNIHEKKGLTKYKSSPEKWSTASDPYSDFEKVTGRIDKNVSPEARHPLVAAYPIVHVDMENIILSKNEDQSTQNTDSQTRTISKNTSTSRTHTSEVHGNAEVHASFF
Sequence of chymotrypsin digested rPA (47 and 37 kDa fragments) (P13423 344-764 limits assumed, chain 2 of 2): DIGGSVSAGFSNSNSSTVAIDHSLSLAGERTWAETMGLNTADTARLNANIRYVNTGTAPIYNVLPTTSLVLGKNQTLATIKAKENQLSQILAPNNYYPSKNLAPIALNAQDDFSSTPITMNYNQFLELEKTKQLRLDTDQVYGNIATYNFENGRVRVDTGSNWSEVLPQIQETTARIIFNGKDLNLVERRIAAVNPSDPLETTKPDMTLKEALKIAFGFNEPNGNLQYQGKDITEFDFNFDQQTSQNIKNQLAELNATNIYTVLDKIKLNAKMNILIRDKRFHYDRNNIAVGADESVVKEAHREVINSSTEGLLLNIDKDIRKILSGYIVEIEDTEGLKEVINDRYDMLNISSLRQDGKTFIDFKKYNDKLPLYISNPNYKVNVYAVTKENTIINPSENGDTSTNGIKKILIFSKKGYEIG

B1: F20G76 (antibody, V domains shown)
VH: EVQLEESGPELVKPGASVKVSCKASGYSFTDYNMYWVKQSHGTSLEWIGVIDPNNGVTSYNQKFKDKATLTADKSSSTAFMHLNSLTSEDSAVYYCSRGGLDYWGQGTTLTVSS
VL: ELVMTQSPLSLPVSLGDQASISCRSSQSIIHSNGDTFLEWFLQKPGQSPKLLIYKVSNRFSGVPDRFSGSGSGTDFTLKISRVEAEDLGVYYCFQGSHVPLTFGAGTKLELKR
One may read the Kd as the free concentration of one partner at which half of the binding sites on the other are occupied at equilibrium, for simple one-to-one binding. For orientation: koff means the first-order rate constant of dissociation. The kon is a measure of how fast the partners come together. For the molecule B1, in assay [1], the binding result was “no binding”. In assay [2], the Kd stood at 18.5 nM, the koff came to 6.8e-05 s⁻¹ and the on-rate (kon) was found to be 4000 M⁻¹ s⁻¹. In addition, the binding result in assay [3] is listed as “no binding”. Further, in assay [4], the binding result is reported as “no binding”.

B2: F20G77 (antibody)
chain 1: EVQLEESGPELVSPGVSVKISCEGSGYTFTDYAMHWVKQSHARGLEWIGVIGSYSGNAHHNLNFKDKATMTVDKSSSTAYMELARLTSDDSAIYYCAY
chain 2: ELVMTQSPLSLPVSLGDQASISCRSSQSIIHSNGDTFLEWFLQKPGQSPKLLIYKVSNRFSGVPDRFSGSGSGTDFTLKISRVEAEDLGVYYCFQGSHVPLTFGAGTKLELK
Turning to B2, in assay [2], the Kd came to 0.46 nM, the koff came out at 1.4e-06 s⁻¹ and the kon came to 3100 M⁻¹ s⁻¹.
